Measurements taken from patent US20210338852A1 (NIHON MEDI PHYSICS, published 2021).

Key:
[1] = target: T1, mucin subtype 5AC (MUC5AC) (human (from transplanted human …, UniProt P98088 28-5654, limits assumed)); assay: in vitro autoradiography; mean of small ROIs in MUC5AC positive vs negative tumor sections
T1 construct: Secretory mucin glycoprotein; target present in tumor tissue sections, not as purified protein

[2] = target: T1, mucin subtype 5AC (MUC5AC); assay: in vitro autoradiography; whole-section ROI of MUC5AC positive vs negative tumor sections

B1: ^225Ac-labeled anti-MUC5AC humanized antibody prepared using ^225Ac-labeled DOTAGA-DBCO (monovalent antibody; H01L03) (antibody, human IgG1, kappa, V domains shown)
VH: EVQLLESGGGLVQPGGSLRLSCAASGFTFSNYGMSWVRQAPGKGLEWVSTISNSGRYTYFPDSVKGRFTISRDNSKNTLYLQMNSLRAEDTALYYCTRHLDYANYDAMDYWGQGTLVTVSS
VL: DIQMTQSPSSLSASVGDRVTITCRASKSVTTSDFSYMHWYQQKPGKSPKLLIYLASNLESGVPSRFSGSGSGTDFSLTISSLQPEDFATYYCQHSREFPWTFGGGTKVEIKR
modifications: Fc region site-specifically modified (Lys252, Eu numbering) by one molecule per antibody of antibody-modification peptide (SEQ ID NO: 10 with Xaa2 = lysine, disulfide between its two cysteines, N-terminal diglycolic acid-PEG8-ethyl azide); azide click-reacted with ^225Ac-chelated DOTAGA-DBCO
notes: also called RI-labeled anti-MUC5AC humanized antibody prepared using ^225Ac-labeled DOTAGA-DBCO; ^225Ac-labeled antibody
[1]
  binding ratio to the MUC5AC positive tumor and the negative tumor: 6.5 fold

B2: ^89Zr-labeled anti-MUC5AC humanized antibody prepared using ^89Zr-labeled DOTA-Bn-DBCO (monovalent antibody; H01L03) (antibody, human IgG1, kappa, V domains shown)
VH: B1 VH
VL: B1 VL
modifications: Fc region site-specifically modified (Lys252, Eu numbering) by one molecule per antibody of antibody-modification peptide (SEQ ID NO: 10 with Xaa2 = lysine, disulfide between its two cysteines, N-terminal diglycolic acid-PEG8-ethyl azide); azide click-reacted with ^89Zr-chelated DOTA-Bn-DBCO (formula L1-4)
notes: also called RI-labeled anti-MUC5AC humanized antibody prepared using ^89Zr-labeled DOTA-Bn-DBCO
[2]
  binding ratio to the MUC5AC positive tumor and the negative tumor: 151 fold

B3: ^89Zr-labeled anti-MUC5AC humanized antibody prepared using ^89Zr-labeled DOTAGA-DBCO (monovalent antibody; H01L03) (antibody, human IgG1, kappa, V domains shown)
VH: B1 VH
VL: B1 VL
modifications: Fc region site-specifically modified (Lys252, Eu numbering) by one molecule per antibody of antibody-modification peptide (SEQ ID NO: 10 with Xaa2 = lysine, disulfide between its two cysteines, N-terminal diglycolic acid-PEG8-ethyl azide); azide click-reacted with ^89Zr-chelated DOTAGA-DBCO
notes: also called RI-labeled anti-MUC5AC humanized antibody prepared using ^89Zr-labeled DOTAGA-DBCO; ^89Zr complex-labeled antibody
[2]
  binding ratio to the MUC5AC positive tumor and the negative tumor: 138 fold
